In the experiment the target is T1, human VWF-A2 fragment.
T1 chain: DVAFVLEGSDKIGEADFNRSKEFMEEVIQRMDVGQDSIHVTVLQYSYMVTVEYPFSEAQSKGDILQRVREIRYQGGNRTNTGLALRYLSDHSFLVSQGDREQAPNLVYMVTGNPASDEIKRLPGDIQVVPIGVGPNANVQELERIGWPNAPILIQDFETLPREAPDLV
Kind of experiment: microscale thermophoresis. More on the design: unit not given beside the values. The settings on record: chain shown with the change;; parent: est. 6.2e-9; read off a plot. Background: Microscale thermophoresis detects binding through changes in fluorescence in a small temperature gradient.

B1: human recombinant wild-type complement factor H, P08603 W1183R (protein)
chain: EDCNELPPRRNTEILTGSWSDQTYPEGTQAIYKCRPGYRSLGNVIMVCRKGEWVALNPLRKCQKRPCGHPGDTPFGTFTLTGGNVFEYGVKAVYTCNEGYQLLGEINYRECDTDGWTNDIPICEVVKCLPVTAPENGKIVSSAMEPDREYHFGQAVRFVCNSGYKIEGDEEMHCSDDGFWSKEKPKCVEISCKSPDVINGSPISQKIIYKENERFQYKCNMGYEYSERGDAVCTESGWRPLPSCEEKSCDNPYIPNGDYSPLRIKHRTGDEITYQCRNGFYPATRGNTAKCTSTGWIPAPRCTLKPCDYPDIKHGGLYHENMRRPYFPVAVGKYYSYYCDEHFETPSGSYWDHIHCTQDGWSPAVPCLRKCYFPYLENGYNQNYGRKFVQGKSIDVACHPGYALPKAQTTVTCMENGWSPTPRCIRVKTCSKSSIDIENGFISESQYTYALKEKAKYQCKLGYVTADGETSGSITCGKDGWSAQPTCIKSCDIPVFMNARTKNDFTWFKLNDTLDYECHDGYESNTGSTTGSIVCGYNGWSDLPICYERECELPKIDVHLVPDRKKDQYKVGEVLKFSCKPGFTIVGPNSVQCYHFGLSPDLPICKEQVQSCGPPPELLNGNVKEKTKEEYGHSEVVEYYCNPRFLMKGPNKIQCVDGEWTTLPVCIVEESTCGDIPELEHGWAQLSSPPYYYGDSVEFNCSESFTMIGHRSITCIHGVWTQLPQCVAIDKLKKCKSSNLIILEEHLKNKKEFDHNSNIRYRCRGKEGWIHTVCINGRWDPEVNCSMAQIQLCPPPPQIPNSHNMTTTLNYRDGEKVSVLCQENYLIQEGEEITCKDGRWQSIPLCVEKIPCSQPPQIEHGTINSSRSSQESYAHGTKLSYTCEGGFRISEENETTCYMGKWSSPPQCEGLPCKSPPEISHGVVAHMSDSYQYGEEVTYKCFEGFGIDGPAIAKCLGEKWSHPPSCIKTDCLSLPSFENAIPMGEKKDVYKAGEQVTYTCATYYKMDGASNVTCINSRWTGRPTCRDTSCVNPPTVQNAYIVSRQMSKYPSGERVRYQCRSPYEMFGDEEVMCLNGNWTEPPQCKDSTGKCGPPPPIDNGDITSFPLSVYAPASSVEYQCQNLYQLEGNKRITCRNGQWSEPPKCLHPCVISREIMENYNIALRRTAKQKLYSRTGESVEFVCKRGYRLSSRSHTLRTTCWDGKLEYPTCAKR
Turning to B1, the EC50 came out at 2.3e-09.

Values taken from publication PMC13123425.
